Assays:
[1] = substrate: Oc1cc(O)c2cc(O)c(-c3cc(O)c(O)c(O)c3)[o+]c2c1; test: HPLC of glucoside product, initial rates, Lineweaver-Burk; assay type: biochemical, Freesia hybrid cultivar; details: apparent Km, 10 mM UDP-glucose, 100 mM potassium phosphate pH 8.0, 30°C, 2 min
From the text: (§1) HPLC of glucoside product, initial rates, Lineweaver-Burk on Fh3GT1

[2] = substrate: O=c1c(O)c(-c2ccc(O)c(O)c2)oc2cc(O)cc(O)c12; test: as above; assay type: biochemical, Freesia hybrid cultivar; details: apparent Km, 10 mM UDP-glucose, 100 mM potassium phosphate pH 8.0, 30°C, 2 min
From the text: as §1

B1: Fh3GT1 (Freesia hybrid cultivar) (protein)
chain: MGSADRSHVALLAFPFGTHAAPLLSLGLNLASSAPHGTTFSFLSNRRPVSLPPNSAIKFYEIADGSDPEHEGHVHPEEEVRVFMEETPGNYKKALEAAVDRCGGQRVTCIVADAFLWFVGDIAAEFGVHWVPLWTGGPCSFLAHLYTDMLRNKIGTGKEADPDEDLQFLPGLSGFRVRDLPDDIVTGDLTGAFASLLHRMSIEIPRSAAAIAINTFEGLHPDIDADLASKFKKSLPIGPLNLLNPTLNQPDRFSCLAWLDKFEPHSVAYVSFGTLAALTEAELVELASGLEQSGVPFLWSLKEPGQLPAGFLDRTKDRGLVVPWVPQAEALKHVAVGASLSHCGWNSVMESVTSGVPMLCRPFLGDQTMNARAVSHVWKVGVTFENGTMTRANVAEAMKKVVVGEEGRKMRERAAAIREMAAGSVRPGGSSVQNFKALLDIVIAR
notes: full-length ORF, pET-28a(+), N-terminal His tag, E. coli BL21(DE3), Ni Sepharose purified; cDNA described in Sui et al. 2011; Asn-244 (NPTL) and Asn-386 (NGTM)
With B1 as the protein, how does the Km [1] read?
The Km was 58.88 ± 1.68 µM.

What about the kcat [1] of the same protein?
Its kcat is 0.53 ± 0.01 s⁻¹.

What about the kcat/Km [1] of the same protein?
The kcat/Km was 9060 M⁻¹ s⁻¹.

And the Km [2]?
Its Km is 98.47 ± 4.96 µM.

What about the kcat [2] of the same protein?
Its kcat is 4.59 ± 0.035 s⁻¹.

And the kcat/Km [2]?
The kcat/Km was 48500 M⁻¹ s⁻¹.

— publication PMC4815329, “Biochemical and Molecular Characterization of a Flavonoid 3-O-glycosyltransferase Responsible for Anthocyanins and Flavonols Biosynthesis in Freesia hybrida” (Frontiers in Plant Science, 2016)
